From PMC3248438, “Probing the SELEX Process with Next-Generation Sequencing”

Biological target: Streptavidin (UniProt P22629 25-183)
Assay: SPR; kon 1.5e4 M-1 s-1, koff 2.2e-3 s-1; 1:1 Langmuir fit, chi2 0.535; 900 RU chip; Binding buffer 20 mM Tris, 140 mM NaCl, 5 mM MgCl2, 2 mM CaCl2, 2 mM KCl, 0.05% Tween 20, pH 7.4; SPR at 25 C, 30 ul/min; FLAA 1 h at room temperature
Details: protein: commercial; chain copies: 4

Streptavidin, sequence (P22629 25-183): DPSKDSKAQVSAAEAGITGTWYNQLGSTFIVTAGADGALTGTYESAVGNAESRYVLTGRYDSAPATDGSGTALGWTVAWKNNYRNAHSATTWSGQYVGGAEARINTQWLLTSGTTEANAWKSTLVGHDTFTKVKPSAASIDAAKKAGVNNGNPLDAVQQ

Binder: ATCTCCGATTGCCCCACGACGCAGTGGTCGGAGTTACTTT (ssDNA) [R10#17]
- Kd: 140 nM
